Laboratory results reported in doi:10.1101/634816.
Changes are numbered by the printed parent chain. Where two headings read alike, the source gives them in different places.

T1: AtARF5-DBD (Arabidopsis thaliana, UniProt P93024 1-390)
T1 sequence: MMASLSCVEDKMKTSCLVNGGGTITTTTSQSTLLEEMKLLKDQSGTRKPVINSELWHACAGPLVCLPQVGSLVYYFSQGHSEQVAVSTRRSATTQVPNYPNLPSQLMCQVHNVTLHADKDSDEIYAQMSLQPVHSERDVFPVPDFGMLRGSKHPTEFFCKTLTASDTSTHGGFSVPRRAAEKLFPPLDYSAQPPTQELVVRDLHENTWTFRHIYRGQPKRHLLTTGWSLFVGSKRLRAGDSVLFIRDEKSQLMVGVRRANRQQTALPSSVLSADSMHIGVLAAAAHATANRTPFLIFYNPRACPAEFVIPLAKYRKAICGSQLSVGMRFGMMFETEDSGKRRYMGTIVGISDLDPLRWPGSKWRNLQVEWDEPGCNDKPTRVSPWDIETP

B1: ER7-GG (dsDNA)
DNA 1: CCGGTAGGTTGTCGGCCAAAGGCCGACAACCGGTAGG
DNA 2: CCTACCGGTTGTCGGCCTTTGGCCGACAACCTACCGG
B2: ER7 (dsDNA)
DNA 1: B1 DNA 1 with G14T, G15C, C23G, C24A
DNA 2: B1 DNA 2 with G14T, G15C, C23G, C24A

Tests used:
AtARF5-DBD [1] = biological target: T1, AtARF5-DBD; assay: Ni-NTA pull-down with SYBR Gold fluorescence
AtARF5-DBD [2] = biological target: T1, AtARF5-DBD; assay: Ni-NTA pull-down with SYBR Gold fluorescence; remark: listed apart in the source

Binder | binding result (AtARF5-DBD [1]) | binding result (AtARF5-DBD [2])
B1 | binds | –
B2 | – | binds
